Experimental data from paper PMC5149108.

What was measured:
Assay in all cases: fluorescence anisotropy
A1-LCD = A1-LCD (UniProt P09651 186-251+304-372, internal_change)
A1-RRM = A1-RRM (UniProt P09651 14-184)
A1-FL (hnRNPA1) = A1-FL (hnRNPA1) (UniProt P09651 1-251+304-372, internal_change)

Measured: binding result

GGGCCCCCGGGUACCGAGCUGCUAAUCAAAACAAAACAAAAGCU (ssRNA) [fl-RNA44]
binds: A1-LCD | A1-RRM | A1-FL (hnRNPA1)
